Measurements published in the supplement of paper PMC9876800.

These substances were tested on peptide library, one residue held at a place counted from the S/T acceptor (assay: relative phosphorylation of the sub-library (ratio to the mean residue at this position); human; higher = residue favoured). Conditions: N fixed; at -3.
In short: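 Human or orthologue kinase constructs, purified and recombinant, were incubated under kinase-specific conditions in 384-well plates with biotinylated degenerate peptide sub-libraries. Each sub-library fixed one residue at one position around a central Ser/Thr. Incubations lasted 90 min with peptides at 50 μM and 50 μM ATP spiked with γ-32P-ATP, after which spots on streptavidin membranes were phosphorimaged and quantified by densitometry. Relative sub-library phosphorylation is a ratio to the mean residue at that position.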

Chain of AURKB, construct: Full length (Q96GD4 whole entry, looked up): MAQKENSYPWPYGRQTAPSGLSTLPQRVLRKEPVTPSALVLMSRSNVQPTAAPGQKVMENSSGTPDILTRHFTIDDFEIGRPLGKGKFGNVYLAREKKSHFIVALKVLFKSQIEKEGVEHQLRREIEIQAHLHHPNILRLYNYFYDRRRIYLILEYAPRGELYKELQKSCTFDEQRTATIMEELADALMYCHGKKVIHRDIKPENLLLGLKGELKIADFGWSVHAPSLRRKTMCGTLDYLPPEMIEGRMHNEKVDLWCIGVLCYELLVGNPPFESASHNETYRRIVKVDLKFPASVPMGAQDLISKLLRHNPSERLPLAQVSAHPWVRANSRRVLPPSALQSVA
Chain of TP53RK, construct: Full length (Q96S44 whole entry, looked up): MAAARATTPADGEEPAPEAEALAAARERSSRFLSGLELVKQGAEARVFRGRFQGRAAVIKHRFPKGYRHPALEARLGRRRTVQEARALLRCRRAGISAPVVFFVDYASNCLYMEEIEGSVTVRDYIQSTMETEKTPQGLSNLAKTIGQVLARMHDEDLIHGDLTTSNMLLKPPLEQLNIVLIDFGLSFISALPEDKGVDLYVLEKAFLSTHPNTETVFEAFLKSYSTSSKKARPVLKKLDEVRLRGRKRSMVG
Chain of NEK4, construct: Full length (P51957 whole entry, looked up): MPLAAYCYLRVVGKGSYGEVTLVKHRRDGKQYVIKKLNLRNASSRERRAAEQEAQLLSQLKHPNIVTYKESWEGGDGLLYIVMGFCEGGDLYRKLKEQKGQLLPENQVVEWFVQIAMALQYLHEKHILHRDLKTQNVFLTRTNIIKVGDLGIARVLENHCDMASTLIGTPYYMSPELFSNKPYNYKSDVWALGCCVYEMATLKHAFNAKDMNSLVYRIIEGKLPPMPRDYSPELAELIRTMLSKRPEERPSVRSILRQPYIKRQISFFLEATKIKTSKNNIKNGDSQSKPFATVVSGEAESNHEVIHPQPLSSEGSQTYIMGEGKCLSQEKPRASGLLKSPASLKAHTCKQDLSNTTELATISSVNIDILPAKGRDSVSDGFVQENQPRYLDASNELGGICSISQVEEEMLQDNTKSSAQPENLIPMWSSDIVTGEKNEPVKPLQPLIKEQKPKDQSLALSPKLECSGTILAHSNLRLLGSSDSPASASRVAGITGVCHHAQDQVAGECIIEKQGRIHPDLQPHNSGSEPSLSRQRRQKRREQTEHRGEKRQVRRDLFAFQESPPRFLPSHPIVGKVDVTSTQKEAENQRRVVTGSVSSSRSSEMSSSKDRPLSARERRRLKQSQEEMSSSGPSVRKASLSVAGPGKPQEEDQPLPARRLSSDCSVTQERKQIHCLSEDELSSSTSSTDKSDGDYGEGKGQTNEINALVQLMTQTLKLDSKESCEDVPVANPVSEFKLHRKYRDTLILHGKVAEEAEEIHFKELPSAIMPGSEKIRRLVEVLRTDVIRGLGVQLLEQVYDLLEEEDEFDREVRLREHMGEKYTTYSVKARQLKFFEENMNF
Chain of GRK7, construct: Full length (Q8WTQ7 whole entry, looked up): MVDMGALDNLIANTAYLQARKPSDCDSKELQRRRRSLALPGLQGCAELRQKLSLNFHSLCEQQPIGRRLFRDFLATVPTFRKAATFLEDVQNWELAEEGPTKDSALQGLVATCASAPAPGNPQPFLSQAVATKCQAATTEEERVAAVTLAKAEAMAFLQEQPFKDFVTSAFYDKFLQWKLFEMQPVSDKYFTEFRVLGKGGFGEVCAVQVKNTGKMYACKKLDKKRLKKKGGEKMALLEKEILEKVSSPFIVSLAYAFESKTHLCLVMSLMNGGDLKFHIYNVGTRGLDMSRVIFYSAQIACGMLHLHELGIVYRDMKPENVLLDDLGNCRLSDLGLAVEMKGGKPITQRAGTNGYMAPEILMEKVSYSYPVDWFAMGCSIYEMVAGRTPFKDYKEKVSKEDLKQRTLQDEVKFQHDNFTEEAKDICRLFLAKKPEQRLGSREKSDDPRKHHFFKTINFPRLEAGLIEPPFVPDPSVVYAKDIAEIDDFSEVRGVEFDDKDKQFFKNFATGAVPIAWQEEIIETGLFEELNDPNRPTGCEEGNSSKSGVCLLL
Chain of NEK11, construct: Full length (Q8NG66 whole entry, looked up): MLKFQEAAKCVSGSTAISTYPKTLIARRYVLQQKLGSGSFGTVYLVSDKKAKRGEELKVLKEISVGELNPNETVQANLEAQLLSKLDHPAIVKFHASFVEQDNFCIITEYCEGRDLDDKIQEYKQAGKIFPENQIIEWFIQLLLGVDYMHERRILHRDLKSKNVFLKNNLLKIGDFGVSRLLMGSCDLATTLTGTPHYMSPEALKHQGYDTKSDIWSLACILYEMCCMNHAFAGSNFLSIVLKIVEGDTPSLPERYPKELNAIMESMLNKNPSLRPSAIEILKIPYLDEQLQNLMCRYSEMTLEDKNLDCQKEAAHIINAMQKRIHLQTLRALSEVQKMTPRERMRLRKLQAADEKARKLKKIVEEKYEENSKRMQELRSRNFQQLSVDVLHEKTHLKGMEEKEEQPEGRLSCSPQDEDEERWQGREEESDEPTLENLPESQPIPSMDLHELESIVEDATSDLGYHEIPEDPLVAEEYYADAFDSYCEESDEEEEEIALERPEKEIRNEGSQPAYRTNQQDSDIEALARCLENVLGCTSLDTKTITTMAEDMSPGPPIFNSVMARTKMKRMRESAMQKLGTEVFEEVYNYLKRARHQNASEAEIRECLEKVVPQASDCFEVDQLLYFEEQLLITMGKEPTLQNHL
Chain of SGK3, construct: aa119-end (Q96BR1 119-496, looked up): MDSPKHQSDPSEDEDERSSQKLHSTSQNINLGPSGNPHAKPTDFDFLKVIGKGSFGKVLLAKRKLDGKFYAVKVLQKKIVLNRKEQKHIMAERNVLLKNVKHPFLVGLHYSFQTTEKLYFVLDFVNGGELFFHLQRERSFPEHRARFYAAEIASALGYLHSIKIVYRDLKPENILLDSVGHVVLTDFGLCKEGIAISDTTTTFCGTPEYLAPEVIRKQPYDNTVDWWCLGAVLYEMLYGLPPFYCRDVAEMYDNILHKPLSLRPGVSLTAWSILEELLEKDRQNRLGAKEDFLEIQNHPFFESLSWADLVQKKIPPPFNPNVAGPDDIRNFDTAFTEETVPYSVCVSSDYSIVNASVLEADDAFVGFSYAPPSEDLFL
Chain of GRK2, construct: Full length (P25098 whole entry, looked up): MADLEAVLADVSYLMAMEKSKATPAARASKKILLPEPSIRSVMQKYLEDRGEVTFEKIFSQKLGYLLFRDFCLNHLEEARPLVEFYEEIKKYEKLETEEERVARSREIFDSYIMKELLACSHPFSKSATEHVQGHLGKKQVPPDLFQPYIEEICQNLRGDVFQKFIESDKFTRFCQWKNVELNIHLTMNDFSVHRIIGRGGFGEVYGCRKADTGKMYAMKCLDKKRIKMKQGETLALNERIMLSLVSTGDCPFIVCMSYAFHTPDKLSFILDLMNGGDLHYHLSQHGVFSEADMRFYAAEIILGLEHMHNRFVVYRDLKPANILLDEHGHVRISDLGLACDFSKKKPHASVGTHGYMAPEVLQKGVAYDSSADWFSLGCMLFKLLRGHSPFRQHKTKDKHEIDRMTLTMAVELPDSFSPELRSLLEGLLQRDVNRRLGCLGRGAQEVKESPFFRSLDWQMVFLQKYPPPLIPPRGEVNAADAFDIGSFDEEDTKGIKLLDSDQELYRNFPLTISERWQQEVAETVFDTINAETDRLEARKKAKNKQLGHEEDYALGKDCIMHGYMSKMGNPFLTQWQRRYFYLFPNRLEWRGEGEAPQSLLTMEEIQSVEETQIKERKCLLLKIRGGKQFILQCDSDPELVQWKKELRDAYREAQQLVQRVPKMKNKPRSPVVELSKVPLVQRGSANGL

| Substance | relative phosphorylation |
| --- | --- |
| MKNK1, construct: Full length (D165-205) (from UniProt Q9BUB5) | 0.96 |
| TP53RK, construct: Full length (from UniProt Q96S44) | 1.02 |
| GRK2, construct: Full length (from UniProt P25098) | 0.924 |
| NEK4, construct: Full length (from UniProt P51957) | 0.674 |
| AURKB, construct: Full length (from UniProt Q96GD4) | 0.784 |
| SGK3, construct: aa119-end (from UniProt Q96BR1) | 0.454 |
| GRK7, construct: Full length (from UniProt Q8WTQ7) | 1.16 |

Same assay, conditions: N fixed; at -4

| Substance | relative phosphorylation |
| --- | --- |
| NEK11, construct: Full length (from UniProt Q8NG66) | 1.08 |
| MKNK1, construct: Full length (D165-205) (from UniProt Q9BUB5) | 1.07 |
| TP53RK, construct: Full length (from UniProt Q96S44) | 0.966 |
| GRK2, construct: Full length (from UniProt P25098) | 0.99 |
| NEK4, construct: Full length (from UniProt P51957) | 0.913 |
| AURKB, construct: Full length (from UniProt Q96GD4) | 0.844 |
| SGK3, construct: aa119-end (from UniProt Q96BR1) | 0.753 |
| GRK7, construct: Full length (from UniProt Q8WTQ7) | 0.872 |

Same assay, conditions: N fixed; at -5

| Substance | relative phosphorylation |
| --- | --- |
| NEK11, construct: Full length (from UniProt Q8NG66) | 1.03 |
| MKNK1, construct: Full length (D165-205) (from UniProt Q9BUB5) | 0.872 |
| TP53RK, construct: Full length (from UniProt Q96S44) | 0.961 |
| GRK2, construct: Full length (from UniProt P25098) | 0.95 |
| NEK4, construct: Full length (from UniProt P51957) | 0.962 |
| AURKB, construct: Full length (from UniProt Q96GD4) | 0.966 |
| SGK3, construct: aa119-end (from UniProt Q96BR1) | 0.773 |
| GRK7, construct: Full length (from UniProt Q8WTQ7) | 0.96 |

Same assay, conditions: P fixed; at +1

| Substance | relative phosphorylation |
| --- | --- |
| NEK11, construct: Full length (from UniProt Q8NG66) | 0.479 |
| MKNK1, construct: Full length (D165-205) (from UniProt Q9BUB5) | 0.345 |
| TP53RK, construct: Full length (from UniProt Q96S44) | 0.85 |
| GRK2, construct: Full length (from UniProt P25098) | 0.791 |
| NEK4, construct: Full length (from UniProt P51957) | 0.176 |
| AURKB, construct: Full length (from UniProt Q96GD4) | 0.212 |
| SGK3, construct: aa119-end (from UniProt Q96BR1) | 0.361 |
| GRK7, construct: Full length (from UniProt Q8WTQ7) | 0.826 |

Same assay, conditions: P fixed; at +2

| Substance | relative phosphorylation |
| --- | --- |
| NEK11, construct: Full length (from UniProt Q8NG66) | 0.795 |
| MKNK1, construct: Full length (D165-205) (from UniProt Q9BUB5) | 0.387 |
| TP53RK, construct: Full length (from UniProt Q96S44) | 0.925 |
| GRK2, construct: Full length (from UniProt P25098) | 0.627 |
| NEK4, construct: Full length (from UniProt P51957) | 0.993 |
| AURKB, construct: Full length (from UniProt Q96GD4) | 1.07 |
| SGK3, construct: aa119-end (from UniProt Q96BR1) | 0.56 |
| GRK7, construct: Full length (from UniProt Q8WTQ7) | 1.2 |

Same assay, conditions: P fixed; at +3

| Substance | relative phosphorylation |
| --- | --- |
| NEK11, construct: Full length (from UniProt Q8NG66) | 0.931 |
| MKNK1, construct: Full length (D165-205) (from UniProt Q9BUB5) | 0.806 |
| TP53RK, construct: Full length (from UniProt Q96S44) | 1.02 |
| GRK2, construct: Full length (from UniProt P25098) | 0.765 |
| NEK4, construct: Full length (from UniProt P51957) | 1.03 |
| AURKB, construct: Full length (from UniProt Q96GD4) | 1.1 |
| SGK3, construct: aa119-end (from UniProt Q96BR1) | 0.835 |
| GRK7, construct: Full length (from UniProt Q8WTQ7) | 0.999 |

Same assay, conditions: P fixed; at +4

| Substance | relative phosphorylation |
| --- | --- |
| NEK11, construct: Full length (from UniProt Q8NG66) | 1 |
| MKNK1, construct: Full length (D165-205) (from UniProt Q9BUB5) | 1.3 |
| TP53RK, construct: Full length (from UniProt Q96S44) | 0.967 |
| GRK2, construct: Full length (from UniProt P25098) | 0.926 |
| NEK4, construct: Full length (from UniProt P51957) | 1.28 |
| AURKB, construct: Full length (from UniProt Q96GD4) | 1.32 |
| SGK3, construct: aa119-end (from UniProt Q96BR1) | 1.39 |
| GRK7, construct: Full length (from UniProt Q8WTQ7) | 1.43 |

Same assay, conditions: P fixed; at -1

| Substance | relative phosphorylation |
| --- | --- |
| NEK11, construct: Full length (from UniProt Q8NG66) | 0.558 |
| MKNK1, construct: Full length (D165-205) (from UniProt Q9BUB5) | 1.87 |
| TP53RK, construct: Full length (from UniProt Q96S44) | 1.24 |
| GRK2, construct: Full length (from UniProt P25098) | 1.24 |
| NEK4, construct: Full length (from UniProt P51957) | 0.374 |
| AURKB, construct: Full length (from UniProt Q96GD4) | 0.917 |
| SGK3, construct: aa119-end (from UniProt Q96BR1) | 1.06 |
| GRK7, construct: Full length (from UniProt Q8WTQ7) | 1.26 |

Same assay, conditions: P fixed; at -2

| Substance | relative phosphorylation |
| --- | --- |
| NEK11, construct: Full length (from UniProt Q8NG66) | 1.05 |
| MKNK1, construct: Full length (D165-205) (from UniProt Q9BUB5) | 0.55 |
| TP53RK, construct: Full length (from UniProt Q96S44) | 1.2 |
| GRK2, construct: Full length (from UniProt P25098) | 0.931 |
| NEK4, construct: Full length (from UniProt P51957) | 0.588 |
| AURKB, construct: Full length (from UniProt Q96GD4) | 0.327 |
| SGK3, construct: aa119-end (from UniProt Q96BR1) | 0.558 |
| GRK7, construct: Full length (from UniProt Q8WTQ7) | 1.71 |

Same assay, conditions: P fixed; at -3

| Substance | relative phosphorylation |
| --- | --- |
| NEK11, construct: Full length (from UniProt Q8NG66) | 0.971 |
| MKNK1, construct: Full length (D165-205) (from UniProt Q9BUB5) | 1.4 |
| TP53RK, construct: Full length (from UniProt Q96S44) | 0.955 |
| GRK2, construct: Full length (from UniProt P25098) | 0.864 |
| NEK4, construct: Full length (from UniProt P51957) | 0.973 |
| AURKB, construct: Full length (from UniProt Q96GD4) | 0.9 |
| SGK3, construct: aa119-end (from UniProt Q96BR1) | 0.688 |
| GRK7, construct: Full length (from UniProt Q8WTQ7) | 1.89 |

Same assay, conditions: P fixed; at -4

| Substance | relative phosphorylation |
| --- | --- |
| NEK11, construct: Full length (from UniProt Q8NG66) | 1.08 |
| MKNK1, construct: Full length (D165-205) (from UniProt Q9BUB5) | 1.28 |
| TP53RK, construct: Full length (from UniProt Q96S44) | 1.16 |
| GRK2, construct: Full length (from UniProt P25098) | 0.975 |
| NEK4, construct: Full length (from UniProt P51957) | 0.912 |
| AURKB, construct: Full length (from UniProt Q96GD4) | 0.953 |
| SGK3, construct: aa119-end (from UniProt Q96BR1) | 1.09 |
